Columns and labels:
MS2 coat protein [1] = assay: apparent KD of MS2 coat protein; designed switch direction (-1 OFF switch, 1 ON switch): 1; higher = weaker reporter binding
Method in brief: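 Normalised cluster fluorescence was curve-fitted, and each design's median over clusters is its apparent KD. Before this, SNAP-549-labelled MS2 coat protein was titrated from 0.7 or 1.5 nM, doubling to 3 µM, over RNA switches transcribed on Illumina chips by stalled E. coli RNA polymerase. Titrations had no input, 200 uM small-molecule ligand, or an oligonucleotide input, and steps lasted 0.8–1.5 h (lowest) to 10–20 min (highest).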

MS2 coat protein [2] = assay: apparent KD of MS2 coat protein; higher = weaker reporter binding; settings: Eterna round: R107
Method in brief: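 Designed RNA switches were transcribed on-chip from Illumina sequencing clusters. They were then titrated with SNAP-549-labelled MS2 coat protein (twofold steps, 0.7 or 1.5 nM to 3 µM; 0.8–1.5 h to 10–20 min per step) in 100 mM Tris-HCl pH 7.5, 80 mM KCl, 4 mM MgCl2, without or with constant ligand. Apparent KD is the per-design median of normalised cluster binding-curve fits.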

[3] = input ligand: microRNA oligo, concentration not stated
[4] = Eterna round: R95, input ligand: FMN 200 uM
[5] = Eterna round: R95, input ligand: microRNA oligo, concentration not stated
[6] = Eterna round: R95, input ligand: none
[7] = input ligand: theophylline 20 uM
[8] = input ligand: theophylline 2 mM
[9] = input ligand: tryptophan 2.4 mM

Sequence	apparent KD of MS2 coat protein (MS2 coat protein [2]; input ligand: arginine 13.2 mM) [nM]	apparent KD of MS2 coat protein (MS2 coat protein [2]; input ligand: none) [nM]	apparent KD of MS2 coat protein (MS2 coat protein [2]; [7]) [nM]	apparent KD of MS2 coat protein (MS2 coat protein [2]; [8]) [nM]	apparent KD of MS2 coat protein (MS2 coat protein [2]; [9]) [nM]	other results
GACCGCGAGGAAGGAUAUGGAGCCUAAUAGGCUCCAGAAGGUCCAUAAAGGACAUGAGGAUCACCCAUGUGGGCUGAAGCGGUC [Mat - Same State NG 1 - JL mod - D74] (Eterna round: R96, puzzle: Same State NG 1)	–	–	–	–	–	apparent KD of MS2 coat protein (MS2 coat protein [1]; input ligand: FMN 200 uM): 18.3 nM; apparent KD of MS2 coat protein (MS2 coat protein [1]; [3]): 21.4 nM; apparent KD of MS2 coat protein (MS2 coat protein [1]; input ligand: none): 34.7 nM
AACAAUCUAUCUGAGGAUAUCAUGAAAUAAACAUGAGGAUCACCCAUGUGCAGGAAAACUGCAUAUGAGAAGGUAGAUAGAUUGA [salish99_ss2_r3_050] (puzzle: Same State 2)	–	–	–	–	–	apparent KD of MS2 coat protein (MS2 coat protein [1]; [4]): 176 nM; apparent KD of MS2 coat protein (MS2 coat protein [1]; [5]): 140 nM; apparent KD of MS2 coat protein (MS2 coat protein [1]; [6]): 218 nM
ACGCAGCUGGGUGAGGAUAUCGGUGGUACAACAUGAGGAUCACCCAUGUCCGAAGCUCGGACCUCCGAGAAGGCGCCCGGCUGCG [Soinraesar Omei Mod 2] (puzzle: Same State 2)	–	–	–	–	–	apparent KD of MS2 coat protein (MS2 coat protein [1]; [4]): 17.4 nM; apparent KD of MS2 coat protein (MS2 coat protein [1]; [5]): 24.8 nM; apparent KD of MS2 coat protein (MS2 coat protein [1]; [6]): 57.8 nM
UUAAGCCACGGGCAGGAUAUGUAUUAAAAUACAUGAGGAUCACCCAUGUGCAGGUGUAACACCUGACAGAAGGGCCAAUCGAGGC [Soteed - 6] (puzzle: Same State 2)	–	–	–	–	–	apparent KD of MS2 coat protein (MS2 coat protein [1]; [4]): 36.6 nM; apparent KD of MS2 coat protein (MS2 coat protein [1]; [5]): 182 nM; apparent KD of MS2 coat protein (MS2 coat protein [1]; [6]): 284 nM
UUAACAUGAGGAUCACCCAUGUAUAGGGAGUUAGCAAUUUGACAGGAUAUUGAAGAUGUAGAUAGCAAGAAGGGUCGGUAGUCU [JR_SSNG3_Sub003] (Eterna round: R96, puzzle: Same State NG 3)	–	–	–	–	–	apparent KD of MS2 coat protein (MS2 coat protein [1]; input ligand: FMN 200 uM): 39.9 nM; apparent KD of MS2 coat protein (MS2 coat protein [1]; [3]): 41.3 nM; apparent KD of MS2 coat protein (MS2 coat protein [1]; input ligand: none): 45.9 nM
GCCUCCAGCCGAAGGAGCGCUAGAAGGUGACAUGAGGAUCACCCAUGUGUGUGAUGUGGCUAGCAGGUAGGUCGCGGAGGAGGCA [Exclusion - Arginine B (Freestyle 22)]	53.7	109	105	74.1	74.8	–
AUAACAUGAGGAUCACCCAUGUAUUGGUUACGAGGACCGGUACGGCCGCCACUCGUAUUUUGGUGGUAUUUUGUAUAUAUGAUAA [JR_SSTryptoA_Sub018]	26.6	–	32.3	36.5	–	–
CGCUGGCCACAUGAGGAUCACCCAUGUGAAGGAGCGGCGAAUAAGCCAGGUAGGUCGCGCAUGAAUAAAUCAUGUAGGUUGCGAA [XArg-A 11 V2]	16.9	13.4	14.9	17.9	14.5	–
UUAGAUUGCCGAAGGAGCGAGAUAGCCUACAUGAGGAUCACCCAUGUAGAAACGGGCUGAUCUCAGGUAGGUCGCGGCAGGUAGC [Soaquatan]	84.6	26.2	27.4	25.8	24.9	–
UUGUUGUUUGGAAGGAGCGUGUAUGAUUUAGAACAUGAGGAUCACCCAUGUUGGAGGAUAGCACAGGUAGGUCGCCGGGUGGUGG [11.X]	16.2	13.4	23.6	21.4	15	–
GCACGACAUGAGGAUCACCCAUGUGCAGAUACCAGUAGGAUAUCCUACCCUUGGCAGCUGAGUGGAUCCGGAGGACCAUGGGUAA [Same State Theophylline A GF8]	32.8	–	61.7	–	34.7	–
AUUUUUCUAUCAGAUACCAGACAACUCCAAACAUGAGGAUCACCCAUGUAUUGGGUGUUCGUCCCUUGGCAGCUGUUAAUGUUAA [JR_SSTheophyB_Sub003]	24.6	–	18.1	–	16.9	–
ACGACAUGAGGAUCACCCAUGUAAGGUGAUACCAGACGAAGUAAUGUCCCUUGGCAGCACACGCAUAGUUGCGAUUAUUGUACGA [JR_SSTheophyA_Sub007]	83.7	–	522	–	572	–
GGACUAACCAGAAGGAGCGACACAGCAGAAACUGCAAAUCCUCCGCACGAGGAUCACCCGUGUCAGGUAGGUCGCUGGUUAGUCG [ArgBX 28]	37.4	49.5	55.9	71.6	42.7	–
AAGUAAACAUGAGCAAAGCUCAUGUGCGAAGGAGCGGCGGAAACGCCAGGUAGGUCGCGCACAUGAGCAUCAGCCAUGUGUGUCA [Omei Arginine B SS A v1]	11.2	37.9	89.8	58.9	52.9	–
CCUGCUACGGGAAACCGUAGCAGGAAUGAUACCAGUAGGAAAGACUACCCUUGGCAGCAUGGGAAACAUGAGGAUCACCCAUGUU [SSThA NP+V+V2 #7 Same Structure]	37.1	–	76.3	–	50.8	–

Sequence	apparent KD of MS2 coat protein (MS2 coat protein [2]; input ligand: arginine 13.2 mM) [nM]	apparent KD of MS2 coat protein (MS2 coat protein [2]; input ligand: none) [nM]	apparent KD of MS2 coat protein (MS2 coat protein [2]; [7]) [nM]	apparent KD of MS2 coat protein (MS2 coat protein [2]; [8]) [nM]	apparent KD of MS2 coat protein (MS2 coat protein [2]; [9]) [nM]	other results
ACAUGAAGAACAGCGGUGGGCGCGCUCGAUACCAGUACUUUGAUUUACCCUUGGCAGCGACAUGAGGAUCACCCAUGUGAGAUGA [XTheo A #1]	16.9	–	22.4	–	18.6	–
UCGUGUGUUUCGGAUACCAGUGUGGUCGAUACAUGAGGAUCACCCAUGUUAGAGGAGGUACACCCUUGGCAGCCGGCUGUUGCGG [kdtmullin]	59.9	–	88.5	–	79.5	–
AGUGUUAUAACUGAUACCAGACCUUUGCUUAUACAUGAGGAUCACCCAUGUAAAAUGGCGGUCCCUUGGCAGCAGAGAAUACACA [#08 Same State - Theophylline B]	30.2	–	32.9	–	36.3	–
AAACAACAUGAGGAUCACCCAUGUACCGAUACCAGCCAAAUAUAAGGCCCUUGGCAGCGGAGUAAAUCCGGAGGACAAUGGGUAA [Same State Theophylline A GF5]	8.62	39	39.2	76.9	28.3	–
CGCAACCCACAUGAGGAUCACCCAUGUGAAGGAGCGGCGAAUAAGCCAGGUAGGUCGCGCAUGAAUAAAUCAUGUAGGAAGCUAA [XArg-A 8 V1]	9.8	10.8	13.2	12.7	9.79	–
UAUCUAACGAAGGAUACCAGUACAUGAGAGUACAUGAGGAUCACCCAUGUUAGAUACGGGUACCCUUGGCAGCCUCACCUACACC [theeternabot_sameState_MS2_Theo_B_11]	40.3	–	71.6	–	58	–
AGACAUGAGGAUCACCCAUGUAGUACGGAUACCAGAUCCAGAUGCGUCCCUUGGCAGCUGUAGUACAGCGUUACAUCGCUCAUAG [Exclusion - Theophylline A (Freestyle 25)]	21	–	44	–	36.4	–
GGAUAGGACACGGCCGCCACUAGCUAGGAUACUAGCAACAUUUCCUCACCUGAGGAUCACCCUGGUAGGACCGGGUGUCCUAUCG	134	353	569	1390	394	–
AACACAUGAGGAUCACCCAUGUCCAUGUACCGAGGACCGGUACGGCCGCCACUCGACAUGAGGAUCACCCAUGUUCCAUGUUGUC [Same State Tryptophan A 3]	76	–	131	146	–	–
UGGCAAGAGGGAAGGAGCGUCAGCUGAGUCACAUGAGGAUCACCCAUGUCGCACAUAGUGUGACAGGUAGGUCGCCCUCUACCCU [Rearian]	67.9	222	209	217	148	–
UGACAUUGCUCAGAUACCAGACAGGAGGAUCACUCCUGUGCCAACAAGUACAAAAUAAAUGUCCCUUGGCAGCUGAGCAAUGUCU [TheoBX 25 #MS2Left #AlternativeMS2 #Theo22]	32	71.1	223	459	49	–
AAAAUCCUAUCUGAGGAUCACCCAGGUGAAGGAGCGCCCGAAAGGGCAGGUAGGUCGCACCUGAGGAUCACCCUGGUAAACCUAA [ArgEX 21 #DoubleMS2 #OpenEnded]	68.8	76.7	76.3	90.6	65.4	–
AUGUAAGUGGUGUCACUGUGGUCUAGUGAUACCAGUAUCGAAAGAUACCCUUGGCAGCGCUAGAACAUGAGGAUCACCCAUGUUU [#24 Exclusion-TheophyllineA]	34.8	–	74.8	–	58.3	–
CAAAGUUCGUCUCUGGUCCUCUAAUCGGCUCGAGGACCGGUACGGCCGCCACUCGCCCGACAUGAGGAUCACCCAUGUCUGUAAA [Dilaanis]	15.5	–	23	16.8	–	–
ACCUGUACGAAAAGUGCAGGACACGGAAUACGAGGACCGGUACGGCCGCCACUCGGAUAAAACCUGAGGAUCACCCUGGUCCGUG [TrypAS 14 #AlternativeMS2 #Zipper #StaticStem]	27.7	24.6	43.5	34.6	22.6	–

Reference: the supplement of paper PMC9170038
